The results in this text go back to PMC1781933, “Structure-based engineering of papillomavirus major capsid L1: controlling particle assembly” (Virology Journal, 2007).

As a reminder, the stoichiometry N is the number of molecules, sites or subunits per partner or assembly.

The data set deals with the molecule itself. Nature of the data set: SEC; Superdex-200, L1 eluted from the glutathione column after thrombin cleavage; step: L1 chains to pentamer. On the technique in general: SEC sorts molecules by how far they enter the pores of the column.

B1: full-length HPV16 L1 (natural protein)
chain: MSLWLPSEATVYLPPVPVSKVVSTDEYVARTNIYYHAGTSRLLAVGHPYFPIKKPNNNKILVPKVSGLQYRVFRIHLPDPNKFGFPDTSFYNPDTQRLVWACVGVEVGRGQPLGVGISGHPLLNKLDDTENASAYAANAGVDNRECISMDYKQTQLCLIGCKPPIGEHWGKGSPCTNVAVNPGDCPPLELINTVIQDGDMVDTGFGAMDFTTLQANKSEVPLDICTSICKYPDYIKMVSEPYGDSLFFYLRREQMFVRHLFNRAGAVGENVPDDLYIKGSGSTANLASSNYFPTPSGSMVTSDAQIFNKPYWLQRAQGHNNGICWGNQLFVTVVDTTRSTNMSLCAAISTSETTYKNTNFKEYLRHGEEYDLQFIFQLCKITLTADVMTYIHSMNSTILEDWNFGLQPPPGGTLEDTYRFVTSQAIACQKHTPPAPKEDPLKKYTFWEVNLKEKFSADLDQFPLGRKFLLQAGLKAKPKFTLGKRKATPTTSSTSTTAKRKKRKL
notes: major capsid protein L1 of human papillomavirus type 16, full-length clone in pGEX-2T; Purified as pentamers; forms T = 7 particles in assembly buffer; also called wild-type L1; major capsid L1 protein; source: E. coli, expressed as GST-L1 fusion from pGEX-2T, glutathione column, cleaved with thrombin, Superdex-200; not shown: GST, N-terminal, cleaved
For B1, the “stoichiometry N” value turned out to be 5.
